In paper PMC4631483, “The oxygenating constituent of 3,6-diketocamphane monooxygenase from the CAM plasmid of Pseudomonas putida: the first crystal structure of a type II Baeyer–Villiger monooxygenase” (Acta Crystallographica Section D: Biological Crystallography, 2015):

Legend:
[1] = molecular target: the molecule itself; experiment: crystal structure; native apo enzyme; crystals from 50 mM PIPES pH 6.5, 50% ammonium sulfate, room temperature; P212121, two subunits in the asymmetric unit; 1.9 A
[2] = molecular target: the molecule itself; experiment: crystal structure; overexpressed enzyme co-crystallised with 20 mM FMN, 5 mM NADH, 5 mM (-)-camphor; 100 mM HEPES pH 7.0, 20% PEG 3350, 18 C; P212121, one dimer in the asymmetric unit; 1.9 A

Row | Protein | stoichiometry N [1] | stoichiometry N [2]
1 | native 3,6-diketocamphane 1,6-monooxygenase, oxygenating component (enzyme, Pseudomonas putida NCIMB 10007, UniProt D7UER1 1-378, looked up, 3,6-diketocamphane 1,6-monooxygenase (3,6-DKMO; EC 1.14.13.-), oxygenating component, encoded on the CAM plasmid of Pseudomonas putida NCIMB 10007; monomer 42.3 kDa; residues up to 378 are numbered in the model (A1, A128-133, A176-180, A377-378, B1, B127-135, B176-179 not modelled); also called 3,6-DKMO; native 3,6-DKMO) MAMETGLIFHPYMRPGRSARQTFDWGIKSAVQADSVGIDSMMISEHASQIWENIPNPELLIAAAALQTKNIKFAPMAHLLPHQHPAKLATMIGWLSQILEGRYFLGIGAGAYPQASYMHGIRNAGQSNTATGGEETKNLNDMVRESLFIMEKIWKREPFFHEGKYWDAGYPEELEGEEGDEQHKLADFSPWGGKAPEIAVTGFSYNSPSMRLAGERNFKPVSIFSGLDALKRHWEVYSEAAIEAGHTPDRSRHAVSHTVFCADTDKEAKRLVMEGPIGYCFERYLIPIWRRFGMMDGYAKDAGIDPVDADLEFLVDNVFLVGSPDTVTEKINALFEATGGWGTLQVEAHDYYDDPAPWFQSLELISKEVAPKILLPKR | 2 | 
2 | recombinant (overexpressed) 3,6-diketocamphane 1,6-monooxygenase, oxygenating component, N-terminally hexahistidine-tagged (enzyme, Pseudomonas putida, 3,6-diketocamphane 1,6-monooxygenase (3,6-DKMO), oxygenating component, the 3,6-DKMO gene of the CAM plasmid of Pseudomonas putida in pET-28b; residues A126-135, A176-179, A377-378, B125-135, B176-179 not modelled in the FMN complex; Crystallised with 20 mM FMN, 5 mM NADH and 5 mM (-)-camphor; only FMN (occupancy 0.6) seen; also called overexpressed 3,6-DKMO; recombinant 3,6-DKMO; source: E. coli …) MAMETGLIFHPYMRPGRSARQTFDWGIKSAVQADSVGIDSMMISEHASQIWENIPNPELLIAAAALQTKNIKFAPMAHLLPHQHPAKLATMIGWLSQILEGRYFLGIGAGAYPQASYMHGIRNAGQSNTATGGEETKNLNDMVRESLFIMEKIWKREPFFHEGKYWDAGYPEELEGEEGDEQHKLADFSPWGGKAPEIAVTGFSYNSPSMRLAGERNFKPVSIFSGLDALKRHWEVYSEAAIEAGHTPDRSRHAVSHTVFCADTDKEAKRLVMEGPIGYCFERYLIPIWRRFGMMDGYAKDAGIDPVDADLEFLVDNVFLVGSPDTVTEKINALFEATGGWGTLQVEAHDYYDDPAPWFQSLELISKEVAPKILLPKR |  | 2
